From paper doi:10.1101/2023.01.13.523903 (bioRxiv, 2023)

Molecular target: Myc-DDK tagged human CD2-associated protein (human, UniProt Q9Y5K6 1-639)
Assay: peptide or protein array

Myc-DDK tagged human CD2-associated protein, sequence (Q9Y5K6 whole entry): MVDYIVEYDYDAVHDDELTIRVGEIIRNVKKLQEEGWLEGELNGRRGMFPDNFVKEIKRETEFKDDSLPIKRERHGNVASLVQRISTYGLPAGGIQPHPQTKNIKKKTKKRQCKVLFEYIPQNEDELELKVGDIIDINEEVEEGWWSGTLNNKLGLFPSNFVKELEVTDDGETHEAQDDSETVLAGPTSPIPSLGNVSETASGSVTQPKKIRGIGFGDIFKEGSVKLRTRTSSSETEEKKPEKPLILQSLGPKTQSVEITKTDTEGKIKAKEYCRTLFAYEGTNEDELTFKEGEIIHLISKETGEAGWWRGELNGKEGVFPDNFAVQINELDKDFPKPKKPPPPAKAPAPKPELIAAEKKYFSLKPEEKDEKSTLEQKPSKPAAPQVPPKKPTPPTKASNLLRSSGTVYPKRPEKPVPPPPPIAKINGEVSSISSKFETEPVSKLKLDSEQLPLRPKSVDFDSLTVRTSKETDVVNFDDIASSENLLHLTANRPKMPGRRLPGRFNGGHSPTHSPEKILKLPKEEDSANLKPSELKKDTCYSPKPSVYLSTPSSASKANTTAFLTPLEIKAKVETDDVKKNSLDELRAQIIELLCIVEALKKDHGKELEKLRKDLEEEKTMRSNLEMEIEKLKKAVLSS

B1: TKS4 peptide 189 (peptide)
peptide: QRPVVPPRRPPPPKK
B1: binds.

B2: TKS4 peptide 188 (peptide)
peptide: EAPQQRPVVPPRRPP
B2: binds.
